Experimental data published in article PMC11088064 (2024).

B1: His-tagged mPD-1 (PD1-M5228, ACRO Biosystem) (receptor)
chain: LEVPNGPWRSLTFYPAWLTVSEGANATFTCSLSNWSEDLMLNWNRLSPSNQTEKQAAFCNGLSQPVQDARFQIIQLPNRHDFHMNILDTRRNDSGIYLCGAISLHPKAKIEESPGAELVVTERILETSTRYPSPSPKPEGRFQGM

Legend:
[1] = target: RMP1-14; assay: SPR; pH 6.0
[2] = target: RMP1-14; assay: SPR; pH 7.4
[3] = target: B1; assay: SPR; pH 6.0
[4] = target: T1, hPD-1 (PD-1-H5221, ACRO Biosystems) (human, UniProt Q15116 25-170); assay: SPR; pH 7.4
T1 sequence (Q15116 25-170): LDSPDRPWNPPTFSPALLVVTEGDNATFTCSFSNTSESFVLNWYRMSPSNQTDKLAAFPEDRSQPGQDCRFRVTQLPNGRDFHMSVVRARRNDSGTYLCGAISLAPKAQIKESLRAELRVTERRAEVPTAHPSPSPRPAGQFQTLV

[5] = target: B1; assay: SPR; pH 7.4
[6] = target: T1, hPD-1 (PD-1-H5221, ACRO Biosystems); assay: SPR; pH 6.0
[7] = target: B1; assay: SPR; pH 6.0
[8] = target: T1, hPD-1 (PD-1-H5221, ACRO Biosystems); assay: SPR; pH 7.4; remark: listed apart in the source
[9] = target: B1; assay: SPR; pH 7.4

| Kd [1] [nM] | koff [1] [s⁻¹] | Kd [2] [nM] | koff [2] [s⁻¹] | Kd [3] [nM] | Kd [4] [nM] | Kd [5] [nM] | koff [6] [s⁻¹] | koff [7] [s⁻¹] | koff [8] [s⁻¹] | koff [9] [s⁻¹] | Binder |
| --- | --- | --- | --- | --- | --- | --- | --- | --- | --- | --- | --- |
| 2.88 | 0.00025 | 2.43 | 0.00028 |  |  |  |  |  |  |  | B1 |
|  |  |  |  | 0.18 | 0.41 | 0.38 | 3e-05 | 5e-05 | 6e-05 | 9e-05 | GNUV201 (antibody, V domains shown) VH: QVQLVQSGAEVKKPGASVKVSCKASGYTFTGYWMHWVRQAPGQGLEWIGMIHPNSDTTTYNEKFKNRVTMTRDTSISTAYMELSRLRSDDTAVYYCAGTDQAAWFAFWGQGTTVTVSS VL: DIVMTQTPLSLSVTPGQPASISCRSSQNIVHSQGDTYLEWYLQKPGQSPQLLIYKVSKRFSGVPDRFSGSGSGTDFTLKISRVEAEDVGVYYCFQGSHVPWTFGGGTKVEIK |
